# Test results from article PMC11960969, “Mdga2 deficiency leads to an aberrant activation of BDNF/TrkB signaling that underlies autism-relevant synaptic and behavioral changes in mice” (PLOS Biology, 2025).
# System: hippocampal proteins
# Assay: DIA quantification proteomics, hippocampus of Mdga2+/- vs WT mice
# Design: species or system mouse
# Conditions: S3 Table, downregulated DEPs; for log2FC: Mdga2+/- vs WT mouse hippocampus (HET-HIP-VS-WT-HIP), SE, pvalue and adj_pvalue in own columns c3-c5; for Class: regulation class of the protein, HET-HIP-VS-WT-HIP
# Description: The hippocampus of 1.5–2-month-old Mdga2^ +/− male mice and their WT littermate controls was collected and sent to the BGI company for DIA quantification proteomics and data analysis. Briefly, samples were lysed and sonicated. After centrifugation, the supernatant was taken for quantification. Equal amounts of proteins (100 μg) per sample were subjected to trypsin enzymatic hydrolysis. After dryness, 10 μg enzymatic peptides per sample were separated by high-pH fractionation into a total of 10 fractions using high-performance liquid chromatography (HPLC) and freeze-dried. Data-dependent acquisition (DDA) fractions and DIA samples were analyzed by nano-LC–MS/MS. DDA data was identified by Andromeda search engine within MaxQuant. Identified results were used by Spectronaut^TM for spectral library construction. For DIA data, Spectronaut^TM used the constructed spectral library information to complete deconvolution and extraction, and used the mProphet algorithm to complete analytical quality control for obtaining reliable quantitative results. The mass spectrometry proteomics data have been deposited to the ProteomeXchange Consortium via the PRIDE [62] partner repository with the dataset identifier PXD050810. DEPs between comparison groups were identified based on the quantitative results, using the fold change >1.1 and p-value <0.05 as the criteria. After retrieval from the UniProtKB database, identified DEPs were processed for GO analysis by using DAVID (https://david.ncifcrf.gov/home.jsp) and Metascape database (https://metascape.org/gp/index.html).
Molecule,log2FC,Class
"sp¦Q6NWV3¦IF122_MOUSE (protein, UniProt Q6NWV3 1-1182, looked up) Intraflagellar transport …: MRAVLTWRDKAEQCIYDLAFKPDGTQLILAAGNRLLVYDTSDGTLLQPLKGHKDTVYCVAYAKDGKRFASGSADKSIIIWTSKLEGILKYTHNDSIQCVSYNPVTHQLASCSSSDFGLWSPEQKSVSKHKSSSKITCCSWTNDGQYLALGMANGIISIRNKNGEEKVKIERPGGSLSPIWSICWNPSREEHNDILAVADWGQKLSFYQLSGKQIGKDRPLNFDPCCISYFTKGEYILVGGSDKQVSLFTKDGVRLGTVGEQNSWVWTCRVKPDSNYVVVGCQDGTISFYQLIFSTVHGLYKDRYAYRDSMTDVIVQHLITEQKVRIKCRELVKKIAIYKNRLAIQLPEKILIYELYSEDSTDMHYRVKEKIVKKFECNLLVVCADHIILCQEKRLQCLSFSGVKEREWQMESLIRYIKVIGGPAGREGLLVGLKNGQILKIFVDNLFAIVLLKQATAVRCLDMSASRNKLAVVDENDTCLVYDIHTKELLFQEPNANSVAWNTQCEDMLCFSGGGYLNIKASTFPVHQQKLQGFVVGYNGSKIFCLHVFSMSAVEVPQSAPMYQYLDRKMFKEAYQIACLGVTDADWRELAMEALEGLEFETARKAFTRVQDLRYLELISSIEERKKRGETNNDLFLADVFSYQGKFHEAAKLYKRSGHENLALDMYTDLCMFEYAKDFLGSGDPKETKMLITKQADWARNINEPKAAVEMYISAGEHAKAIEISGSHGWVDMLIDIARKLDKAEREPLLMCACYFKKLDSPGYAAETYLKIGDLKSLVQLYVDTKRWDEAFALGEKHPEFKDDVYVPYAQWLAENDRFEEAQKAFHKAGRQGEAVRVLEQLTHNAVVESRFNDAAYYYWMLSMQCLDMAQDPAQKDAMLDKFHHFQHLAELYHGYQTIHRYTEEPFSFDLPETLFNISKFLLHSLTKATPLGISKVNTLFTLAKQSKALGAYKLARHAYDKLRGLQIPARIQKSIELGTLTIRSKPFHDSEELVPLCYRCSTNNPLLNNLGNVCINCRQPFIFSASSYEVLHLVEFYLEEGITDEEAVALIDLEAPRHKREGKWRETSSNNSQTLKLDETMDSIGEDDPFTAKLSFEQGSSEFVPVVVNRSVLRSMSRRDVLIKRWPPPLQWQYFRSLLPDASITMCPSCFQMFHSEDYELLVLQHACCPYCRRRIDDTGP",-1.266,Down
"sp¦Q3UHB1¦NT5D3_MOUSE (protein, UniProt Q3UHB1 1-546, looked up) 5'-nucleotidase …: MATVAAAARGAGARAAAGLRSCGGAVARERPRSGCARRLCSAPAAPAAVDMKSYLWARYHEAKRSTDELVPSIMNNLLNPDAIFSNNEMSLSDIEIYGFDYDYTLVFYSKHLHTLIFNAARDLLINEHRYPVEIRKYEYDPSFAIRGLHYDVQRAVLMKIDAFHYIQMGTVYRGLSVVPDEEVIDMYEGSHVPLEQMSDFYGKSSHGNTMKQFMDIFSLPEMTLLSCVNEHFLKNNIDYEPVHLYKDVKDSIRDVHIKGIMYRAIEADIEKYICYADQTRAVLAKLAAHGKKMFLITNSPSSFVDKGMRYIVGKDWRDLFDVVIVQAEKPNFFNDKRRPFRKVNEKGVLLWDKIHKLQKGQIYKQGNLYEFLKLTGWRGSKVLYFGDHIYSDLADLTLKHGWRTGAIIPELRSELRIMNTEQYIQTMTWLQTLTGLLEQMQVHRDAESQLVLQEWKKERKEMREMTKSFFNAQFGSLFRTDQNPTYFLRRLSRFADIYMASLSCLLNYDVHHTFYPRRTPLQHELPAWSDSPSAFKAPLLQEAQAK",-1.2606,Down
"sp¦P0C7L0¦WIPF3_MOUSE (protein, UniProt P0C7L0 1-485, looked up) WAS/WASL-interacting protein …: MPVPPPPPPPPPPPPPPPPPLGAPPPPPLGAPPPPPPPGPPVSTDTPSLRKPDLKGRSALLADIQQGTRLRKVTQINDRSAPQIEGSKGTSKEGGAAGSNARGGNTPPALGDLFAGGFPVLRPAGQRDVSGGKSGQGPGSRAPSPRLPIKAISGPLPAPASPRLGNASETHSSARPVPPRPSVPAPPPPTPPPPPPPPLPPASPIKAQLVSPPAPPTKVNPSVVPPPLPCAPPLPPPPPTPPPLPPASALSDKAVRPQLAPLHLPPIPPPLPLLPPCGYPGLHSEPNSPAQEVREPPAPPPPPPPPPPPPLPTYASCSSRTAVAPPPLPGANNSGSETPPPLPPKSPSFQTQKALPTPPGAPGPQAILQKKRRGPGTSGGKLNPPPAPPARSPTTELSSKSQQPGGQLRNGGQHAIDDFESKFTFHSMEDFPPPDEYKPCQKIYPSKVPRSRTPGSWLQAEAAGQSSDDIKSRNSQLSLKALPVR",-1.266,Down
